# Measurements from patent US20230094083A1 (YEDA RESEARCH AND DEVELOPMENT, published 2023).
# Changes are numbered by the printed parent chain. Names and notes keep the numbering of the source.
# B1: anti-Grp94 monoclonal antibody clone 9A3 (antibody, mouse IgG2a, V domains shown)
# VH: EVKLVESGGGLVKPGGSLKLSCAASGFTFRTYAMSWVRQTPEKRLEWVATITTGGPTYYPDNVKGRFTISRDNDRNILDLQMNSLRSEDTATYYCLRGATTGDYWGQGTTLIVSS
# VL: DIVMTQSHKFMFTSVGDRVSITCKASHDVSTAVAWYQQKPGQYPKLLIYWASNRYTGVPDRFTGSGSGMDFTFTISSVQAEDLAVYYCQQHSSTPYTFGGGTRLEIK
# notes: Mouse hybridoma antibody, tested as hybridoma supernatant
# B2: optimized anti-Grp94 4C2 antibody (mouse IgG2a, Fc substitutions S239D and I332E, afucosylated) (antibody, part only; not given: mutant mouse IgG2a and light constant, V domains shown, not shown: another chain or arm of the molecule; a dimerising Fc or GST)
# VH: EVQLVETGGGLVQPKGSLKLSCAASGFTFNTNAMNWVRQAPGKGLEWVARIRSKSNNYATYYADSVKDRFTISRDDSQSMLFLQMNNLKTEDTAMYYCVRDTLAWFAYWGQGTLVTVSA
# VL: QIVLTQSPAIMSASPGEKVTITCSASSSVSYMHWFQQKPDTSPKLWIYSTSNLASGVPARFSASGSGTSYSLTISRMEAEDAATYYCQQKTSYPPTFGAGTKLELK
# modifications: The Fc substitutions S239D and I332E (paragraph 258 prints the second as 1332E; paragraph 22 has I332E) and the afucosylated Fc glycan lie in the constant region. The letters given do not carry them.
# B3: anti-Grp94 monoclonal antibody clone 4C2 (antibody, V domains shown)
# VH: B2 VH
# VL: B2 VL
# notes: Mouse hybridoma antibody; It was tested as hybridoma supernatant in the screens (ELISA, Meth A FACS, Biacore, binning); also called 4C2 clone hybridoma supernatant; monoclonal antibody 4C2
# B4: anti-Grp94 monoclonal antibody clone 5B2 (antibody, mouse IgG2a, V domains shown)
# VH: B2 VH with S79N, L81F, F82Y, L103A, A104T
# VL: B2 VL with I10L, T22A, D40G, A63G, A99S, L105I
# notes: as for B1
# How the values were obtained:
# [1] = target: T1, human Grp94 on the cell surface (senescent IMR-90 human lung fibroblasts; IPF patient lung fibroblasts) (human, UniProt P14625 22-803); experiment: immunofluorescence on senescent human IMR-90 cells
# T1 construct: whole, on cells; also called cell surface Grp94; Grp94 on the cell surface of senescent IMR-90 cells
# T1 sequence (P14625 22-803): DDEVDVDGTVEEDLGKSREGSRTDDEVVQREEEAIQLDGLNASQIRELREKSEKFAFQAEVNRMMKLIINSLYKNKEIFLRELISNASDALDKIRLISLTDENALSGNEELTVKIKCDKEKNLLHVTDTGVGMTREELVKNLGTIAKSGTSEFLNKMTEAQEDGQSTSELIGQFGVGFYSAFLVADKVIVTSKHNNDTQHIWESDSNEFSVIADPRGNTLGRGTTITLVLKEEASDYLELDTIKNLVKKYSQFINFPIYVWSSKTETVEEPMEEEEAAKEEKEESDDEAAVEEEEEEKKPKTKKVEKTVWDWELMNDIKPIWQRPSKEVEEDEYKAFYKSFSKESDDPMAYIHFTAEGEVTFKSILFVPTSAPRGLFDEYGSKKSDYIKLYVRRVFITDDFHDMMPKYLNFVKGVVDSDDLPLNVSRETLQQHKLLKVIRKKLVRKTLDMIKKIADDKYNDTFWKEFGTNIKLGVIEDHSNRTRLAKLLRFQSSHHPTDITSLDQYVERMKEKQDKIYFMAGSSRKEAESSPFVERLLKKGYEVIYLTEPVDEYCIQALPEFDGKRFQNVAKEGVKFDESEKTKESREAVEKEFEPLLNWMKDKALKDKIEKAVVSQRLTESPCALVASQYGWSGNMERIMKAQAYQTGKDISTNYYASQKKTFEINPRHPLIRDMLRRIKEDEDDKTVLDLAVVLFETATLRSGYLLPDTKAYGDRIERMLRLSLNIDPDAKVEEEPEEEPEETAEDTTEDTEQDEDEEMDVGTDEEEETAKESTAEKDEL
# [2] = target: T2, mouse Grp94 on the cell surface (Meth A sarcoma cells; senescent primary mouse lung fibroblasts) (mouse, UniProt P08113 22-802); experiment: flow cytometry, senescent against proliferating primary mouse lung fibroblasts
# T2 construct: whole, on cells; also called Grp94 expressed on the surface of Meth A cells
# T2 sequence (P08113 22-802): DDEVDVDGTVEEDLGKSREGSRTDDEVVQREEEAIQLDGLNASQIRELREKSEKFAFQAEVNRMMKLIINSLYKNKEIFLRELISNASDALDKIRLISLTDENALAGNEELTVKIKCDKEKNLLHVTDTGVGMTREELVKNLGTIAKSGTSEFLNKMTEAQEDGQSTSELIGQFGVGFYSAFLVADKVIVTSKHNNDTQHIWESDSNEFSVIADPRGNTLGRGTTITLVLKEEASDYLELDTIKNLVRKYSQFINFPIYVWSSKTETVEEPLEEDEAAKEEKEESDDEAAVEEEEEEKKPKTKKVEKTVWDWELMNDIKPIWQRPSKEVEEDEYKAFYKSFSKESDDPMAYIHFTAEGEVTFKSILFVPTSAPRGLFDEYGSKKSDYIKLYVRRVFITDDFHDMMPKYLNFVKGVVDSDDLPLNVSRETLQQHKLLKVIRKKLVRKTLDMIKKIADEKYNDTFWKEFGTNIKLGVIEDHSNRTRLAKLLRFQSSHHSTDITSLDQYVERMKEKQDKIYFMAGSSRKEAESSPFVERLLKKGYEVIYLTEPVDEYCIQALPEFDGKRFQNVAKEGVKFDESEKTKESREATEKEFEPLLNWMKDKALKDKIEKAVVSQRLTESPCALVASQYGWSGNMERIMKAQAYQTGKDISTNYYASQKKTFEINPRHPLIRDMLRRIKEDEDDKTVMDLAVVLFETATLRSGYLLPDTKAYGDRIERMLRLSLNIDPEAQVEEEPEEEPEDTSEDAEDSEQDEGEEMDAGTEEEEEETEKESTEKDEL
# [3] = target: T2, mouse Grp94 on the cell surface (Meth A …); experiment: flow cytometry on senescent primary mouse lung fibroblasts
# [4] = target: T2, mouse Grp94 on the cell surface (Meth A …); experiment: flow cytometry, neat hybridoma supernatant on Meth A sarcoma cells
# Protocol: (§1) Mouse Meth A sarcoma cells (Cat. 400284 CLS, Germany) were cultured using standard tissue culture conditions in RPMI-1640. Cells were seeded at 1×10⁵ in 100 microliter FACS buffer in 96 well U bottom FACS plates, pelleted and resuspended in 100 microliters neat or 1 in 2 diluted supernatant sample for 30 minutes at 4° C. Cells were washed twice with PBS and resuspended in 100 microliter secondary antibody, AF647 conjugated goat anti-mouse IgG A21236 (Thermo Fisher Scientific) at 2 micrograms/ml in FACS buffer for 30 minutes at 4° C. Cells were washed twice with PBS and resuspended in 100 microliters water containing 10% CellFix (Becton Dickinson, UK). Median fluorescence intensity was measured using an Attune NxT Acoustic Focusing Cytometer (Thermo Fisher Scientific) with autosampler using acquisition parameters optimized with unstained cells and secondary labeled cells: FSC:100, SSC:340, FL1:370. The acquisition rate was 100 microliter/minute stopping at 10,000 R1 events. Positive controls consisted of commercially sourced mouse anti-Grp94 antibodies MA1-10892 (Thermo Fisher Scientific) and MAB7606 (R&D System) at 2 micrograms/ml while negative control consisted of Meth A cells incubated with secondary antibody alone.
# [5] = target: T1, human Grp94 on the cell surface …; experiment: flow cytometry, senescent against proliferating human IMR-90 cells
# [6] = target: T1, human Grp94 on the cell surface …; experiment: flow cytometry on senescent human IMR-90 cells
# [7] = target: T2, mouse Grp94 on the cell surface (Meth A …); experiment: flow cytometry, hybridoma supernatant diluted 1:2 on Meth A sarcoma cells
# Protocol: as §1
# [8] = target: T2, mouse Grp94 on the cell surface (Meth A …); experiment: ranking of clones by flow cytometry on Meth A sarcoma cells
# [9] = target: human Grp94 on the cell surface (senescent IMR-90 human lung fibroblasts; IPF patient lung fibroblasts) (human) (UniProt P14625); experiment: cell-based or functional assay
# human Grp94 on the cell surface (senescent IMR-90 human lung fibroblasts; IPF patient lung fibroblasts) (human), sequence (P14625 22-803): as the sequence (P14625 22-803) above
# [10] = target: T3, recombinant human Grp94 (Creative Biomart, USA) (human, UniProt P14625 22-803, limits assumed); experiment: Biacore single cycle kinetics, antibody captured, Grp94 as analyte
# T3 construct: Bought recombinant protein; It served as immunogen, ELISA coat, Biacore analyte and the immobilised ligand in binning; also called rHGrp94; rhGrp94
# T3 sequence (P14625 22-803 limits assumed): as the sequence (P14625 22-803) above
# Protocol: Biacore single cycle analysis was performed on supernatants where the monoclonal antibody was captured with Fc on the surface as the ligand and Grp94 flowed over as the analyte. Kinetic experiments were performed on a Biacore T200 running Biacore T200 Control software V2.0.1 and Evaluation software V3.0 (GE Healthcare, Sweden). All single cycle kinetic experiments were run at 25° C. with HBS-P+ running buffer (pH 7.4) (GE Healthcare, UK) containing 1 mg/ml BSA.
# Antibodies were diluted in running buffer and at the start of each cycle were loaded onto Fc2, Fc3, and Fc4 of the CM5 chip coupled with an anti-mouse capture antibody using standard amine chemistry (GE Healthcare, UK). IgGs were captured at a flow rate of 10 microliter/minute to give an immobilization level (RL) of approximately 160RU. The surface was then allowed to stabilize. Single cycle kinetic data was obtained with Grp94 (Creative BioMart, USA) as the analyte at a flow rate of 30 microliter/min to minimize any potential mass transport limitations. […] The association phase for the three injections of increasing concentrations of Grp94 was monitored for 150 seconds each time and a single dissociation phase was measured for 900 seconds following the last injection of Grp94. […]
Binder,"Human IF (score 1-9, 1 = best) [1]",Mouse FACS ratio (senescent cells / proliferating cells) [2],"Mouse FACS (score 1-9, 1 = best) [3]",Meth A Binding (mean fluorescence intensity) [4],Human FACS ratio (senescent cells / proliferating cells) [5],"Human FACS plot (score 1-9, 1 = best) [6]",Meth A Dilution 1:2 (mean fluorescence intensity) [7],"Top 24 by Meth A (rank score, 1 = best binder) [8]","ADCC reporter-gene assay (Promega, mouse FcgRIV effector cells), activation of the reporter; target cells senescent IMR-90 [9]","mFcγRIV ADCC Reporter Bioassay (Promega), activation of the reporter gene; target cells senescent IMR-90 [9]",Kd [10]
B1,4 score,7 ratio,4 score,732 RFU (mean fluorescence intensity),6 ratio,1 score,688 RFU (mean fluorescence intensity),18 rank,,,
B2,,,,,,,,,20 fold,20 fold,
B3,1 score,5 ratio,,2690 RFU (mean fluorescence intensity),1 ratio,4 score,1990 RFU (mean fluorescence intensity),1 rank,,,3.47 nM
B4,3 score,6 ratio,,819 RFU (mean fluorescence intensity),3 ratio,3 score,746 RFU (mean fluorescence intensity),12 rank,,,2.5 nM
